Laboratory results as given in publication PMC9877840.

What was measured:
[1] = target: R. shameli ACE2‐mFC (Rhinolophus shameli); experiment: SPR
S309 = experiment: SPR

| Substance | Kd [1] [µM] | Kd (S309) [µM] |
| --- | --- | --- |
| SARS‐CoV‐2 RBD (from UniProt P0DTC2 319-541) (domain or fragment) | 6.64 | – |
| RshSTT182/200 receptor binding domain (RBD) (domain or fragment) | – | 0.00375 |
